Experimental data from patent US20110177003A1 (CENTRE NATIONAL DE LA RECHERCHE SCIENTIFIQUE, published 2011).

B1: IFP1.0 (DrCBD, 321 amino acids, with the D207H mutation) (other)
chain: MSRDPLPFFPPLYLGGPEITTENCEREPIHIPGSIQPHGALLTADGHSGEVLQMSLNAATFLGQEPTVLRGQTLAALLPEQWPALQAALPPGCPDALQYRATLDWPAAGHLSLTVHRVGELLILEFEPTEAWDSTGPHALRNAMFALESAPNLRALAEVATQTVRELTGFDRVMLYKFAPDATGEVIAEARREGLHAFLGHRFPASHIPAQARALYTRHLLRLTADTRAAAVPLDPVLNPQTNAPTPLGGAVLRATSPMHMQYLRNMGVGSSLSVSVVVGGQLWGLIACHHQTPYVLPPDLRTTLEYLGRLLSLQVQVKEA
modifications: biliverdin chromophore covalently incorporated (residue not stated)
notes: Engineered bacteriophytochrome fragment, reported as a homodimer; also called DrCBD/D207H; drCBD/D207H

Experiments:
IFP1.2 = test: multiple angle light scattering at 785 nm; self-association (homodimer)
[1] = molecular target: the molecule itself; test: size exclusion chromatography; self-association (homodimer)

Molecule	apparent molecular weight (IFP1.2)	binding result [1]
IFP1.2	80 kDa	
B1		binds
